The target of assay [1] is T1, recombinant human EGFR extracellular domain with 6xHis (human, UniProt P00533 25-645).
T1 construct: In-house produced; also called 6xHis EGFR ECD; soluble human EGFR ECD; not shown: 6xHis tag
In words: SPR (Biacore 3000) on captured 6xHis EGFR ECD.

For assay [2], the target named is T2, Cynomolgus EGFR extracellular domain (Cynomolgus monkey (Macaca fascicularis), UniProt P55245 25-645 (rhesus entry)).
T2 construct: Cloned without signal peptide; also called Cynomolgus rEGFR ECD; Cynomolgus EGFR ECD
Kind of assay: ELISA on cynomolgus EGFR ECD (Example 10). As for the experimental part:
To verify that tested Anti-EGFR antibodies bound equally well to both Human and Cynomolgus EGFR ECD and accordingly warranting toxicology studies in Cynomolgus monkeys, serial four fold dilutions of antibodies beginning from 1 μg/ml were tested by ELISA for binding to recombinant Human and Cynomolgus EGFR ECD proteins. […] ELISA wells were coated with 50 μl/well of full length EGFR at a concentration of 1 μg/ml in PBS overnight at 4° C. The next morning wells were washed twice with PBS-T and blocked for one hour with 100 μl PBS-T-1% BSA at room temperature, followed by wash twice in PBS-T. Next 50 μl of serially diluted Anti-EGFR antibodies and control antibodies were added to wells and incubated for one hour at room temperature. After antibody incubation wells were washed five times with PBS-T, followed by incubation with 50 μl/well Streptavidin-HRP secondary reagent diluted 1:3000 in blocking buffer and incubation at room temperature for 30 min. Finally wells were washed five times with PBS-T and plates were developed by adding 50 μL/well TMB substrate and incubated at room temperature. After incubation the reaction was stopped by addition of 1 M H₂SO₄; 100 μl/well and plates were read at OD 450 nm.

The target in assay [3] is T3, full length human EGFR expressed on the cell surface (human, UniProt P00533 25-1210).
T3 construct: whole, on cells; also called EGFR on A431-NS cells; EGFR on HN5 cells
Kind of assay: cell ELISA, Fab on A431-NS cells. How it is done: (§1) Cell ELISA: The relative binding affinities defined as the molar concentration giving the half maximal OD (ED50) were determined by antibody titrations on A431-NS cells. Briefly, 10,000 A431-NS cells were grown in 96 well ELISA plates containing DMEM with added 0.5% FCS and 1% P/S at 37° C., 5% CO₂ overnight. […] Then 50 μl of a secondary Goat-anti-Human (Fab specific) HRP conjugate diluted 1:5000 in DMEM containing 1% BSA was added and incubated on ice for 30 min. Finally wells were washed four times with PBS and plates developed by adding 50 μl/well TMB Plus substrate and read at 620 nm every 5-15-30 min. After incubation with substrate the reaction was stopped by addition of 1 M H₂SO₄ and absorbance read at 450 nm. The functional affinity expressed as ED50 values were calculated by subtraction of the average background binding with secondary reagent only, followed by normalization of the binding curves by plotting % maximal binding relative to each antibody tested.

The target in assay [4] is T4, EGFR-Fc (recombinant EGFR ECD-Fc chimera, R&D Systems 344-ER) (human, UniProt P00533 25-645).
T4 construct: extracellular domain; Bought; also called immobilized Human EGFR ECD; immobilized receptor; not shown: human IgG Fc
In words: SPR (BIAcore 2000); Fab over immobilized EGFR ECD-Fc.

The target in assay [5] is T5, wild type full length EGFR purified from A431 cells (human, UniProt P00533 25-1210).
T5 construct: mature; Bought; coated on ELISA wells; also called full length EGFR receptor antigen; Sigma E3641
In words: indirect ELISA, Fab on coated purified full length EGFR.

Assay [6] has as its target T3, full length human EGFR expressed on the …. In words: cell ELISA, Fab titrated on paraformaldehyde-fixed A431-NS cells. How it is done:
as §1

For assay [7] the target is unchanged. Kind of assay: cell ELISA, Fab titrated on paraformaldehyde-fixed A431-NS cells; given as ED50. As for the experimental part:
as §1

Assay [8] concerns the target T4, EGFR-Fc (recombinant EGFR ECD-Fc …). In words: SPR (BIAcore 2000); Fab over immobilized EGFR ECD-Fc against IgG with soluble EGFR ECD.

B1: antibody 1229 (antibody, human IgG1, kappa, V domains shown)
VH: QVQLKESGPGLVAPSQSLSITCSVSGFSLTIYGVHWVRQPPGKGLEWLGVMWAGGNTDYNSALMSRLNISKDNSKSQVFLKVNSLQTDDTAMYYCTRDPDGYYVGWFFDVWGAGTTVTVSS
VL: DIVMTQSHKFMSTSVGDRVSITCKASQDVTNAVAWYQQKPGQSPKLLIYWASIRHTGVPDRFTGSRSGTDYTLTINSVQAEDLALYYCQQHYNTPLTFGAGTKLEIKR
notes: Chimeric IgG1 kappa
For the molecule B1, the figures for the binding result in assay [1] and in assay [2] were “no binding (tested: 40 ug/ml)” and “no binding”, respectively.

B2: Fab 1030 (Fab, V domains shown, not shown: small tags and cut ends)
VH: EVQLVESGGGLVKPGGSLKLSCAASGFTFSSYALSWVRQTPERRLEWVASISGVGSTYFPDSVKGRFTMSRDNARNILYLQMSSLRSEDTAMYYCARGSDGYFYAMDYWGQGTSVTVS
VL: DIVLTQSPASLAVSLGQRATISCRASKSVSTSGYSFMHWYQLKPGQPPKLLIYLASNLESGVPARFSGSGSGTDFTLNIHPVEEEDAATYYCQHSREFPLTFGGGTKLEIKR
For B2, the “EC50 (read off the curve)” value in assay [3] was ~1 nM. Further, in assay [4], the Kd came out at 2.3 nM, the koff came to 0.0002 s⁻¹, the kon was determined as 87000 M⁻¹ s⁻¹ and the “t1/2” value is 57.5 min. For the same molecule, the “EC50 (read off the curve)” value in assay [5] is ~4 nM. Also, the “Log ED50” value in assay [6] was found to be 0.27. This molecule also gave an EC50 in assay [7] of 1.8 nM. The “fold higher affinity against immobilized antigen than against soluble receptor” value in assay [8] came out at 10 fold.

These data come from patent publication US20110135636A1 (SYMPHOGEN A S, published 2011).
